Source: US20260000781A1, “FC CONJUGATES INCLUDING AN INHIBITOR OF CD73 AND USES THEREOF” (Cidara Therapeutics, Inc., priority 2022, published 2026)
Read-outs that look alike come from different tables or passages of the source.

Assays:
[1] = biological target: T1, human CD73 expressed on cells (human) (UniProt P21589); assay: flow cytometry, MDA-MB-231 cells, anti-human Fc detection, gMFI; with 10 nM AB680
T1 sequence (looked up): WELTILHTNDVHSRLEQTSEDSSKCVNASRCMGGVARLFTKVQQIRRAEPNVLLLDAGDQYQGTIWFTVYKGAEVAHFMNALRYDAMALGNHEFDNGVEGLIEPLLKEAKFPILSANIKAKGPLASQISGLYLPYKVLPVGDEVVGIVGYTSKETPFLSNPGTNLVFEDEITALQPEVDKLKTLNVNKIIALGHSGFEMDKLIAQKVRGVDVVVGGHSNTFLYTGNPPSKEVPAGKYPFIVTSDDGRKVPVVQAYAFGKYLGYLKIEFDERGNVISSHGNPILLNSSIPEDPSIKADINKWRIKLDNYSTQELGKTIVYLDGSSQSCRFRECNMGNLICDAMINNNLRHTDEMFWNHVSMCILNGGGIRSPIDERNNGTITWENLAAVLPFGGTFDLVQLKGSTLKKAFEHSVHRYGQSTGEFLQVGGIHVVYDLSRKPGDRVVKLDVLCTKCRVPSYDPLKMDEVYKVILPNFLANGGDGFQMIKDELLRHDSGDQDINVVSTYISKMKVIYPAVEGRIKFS

[2] = biological target: T1, human CD73 expressed on cells (human); assay: flow cytometry, MDA-MB-231 cells, anti-human Fc detection, gMFI; with 1,000 µM AMP
[3] = biological target: T1, human CD73 expressed on cells (human); assay: flow cytometry, MDA-MB-231 cells, anti-human Fc detection, gMFI; 0 nM AB680
[4] = biological target: T2, recombinant human CD73 enzyme (human) (UniProt P21589); assay: cell-based or functional assay
T2 sequence (looked up): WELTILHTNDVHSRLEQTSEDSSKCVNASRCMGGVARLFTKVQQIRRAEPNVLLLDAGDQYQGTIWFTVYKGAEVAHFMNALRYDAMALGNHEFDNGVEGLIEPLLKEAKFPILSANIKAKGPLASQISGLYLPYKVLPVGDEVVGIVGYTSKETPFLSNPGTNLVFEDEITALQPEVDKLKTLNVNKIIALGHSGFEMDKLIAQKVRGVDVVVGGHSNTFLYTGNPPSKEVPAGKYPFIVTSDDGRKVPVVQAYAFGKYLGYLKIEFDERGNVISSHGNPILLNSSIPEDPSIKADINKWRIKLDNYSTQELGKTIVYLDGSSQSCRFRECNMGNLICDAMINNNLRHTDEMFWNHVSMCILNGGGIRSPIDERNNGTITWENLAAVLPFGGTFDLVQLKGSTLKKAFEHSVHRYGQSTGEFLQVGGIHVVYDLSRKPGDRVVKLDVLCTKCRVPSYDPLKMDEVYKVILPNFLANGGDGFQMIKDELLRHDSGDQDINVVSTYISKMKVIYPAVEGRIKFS

[5] = biological target: T1, human CD73 expressed on cells (human); assay: cell-based or functional assay
[6] = biological target: T1, human CD73 expressed on cells (human); assay: cell-based or functional assay; remark: listed apart in the source
[7] = biological target: T1, human CD73 expressed on cells (human); assay: flow cytometry, MDA-MB-231 cells, anti-human Fc detection, gMFI; with 100 nM AB680
[8] = biological target: T1, human CD73 expressed on cells (human); assay: flow cytometry, MDA-MB-231 cells, anti-human Fc detection, gMFI; with 10 µM AMP
[9] = biological target: T1, human CD73 expressed on cells (human); assay: flow cytometry, MDA-MB-231 cells, anti-human Fc detection, gMFI; with 1 nM AB680
[10] = biological target: T1, human CD73 expressed on cells (human); assay: as above; remark: listed apart in the source
[11] = biological target: T1, human CD73 expressed on cells (human); assay: flow cytometry, MDA-MB-231 cells, anti-human Fc detection, gMFI; 0 µM AMP
[12] = biological target: T1, human CD73 expressed on cells (human); assay: flow cytometry, MDA-MB-231 cells, anti-human Fc detection, gMFI; with 10 nM AB680; remark: listed apart in the source
[13] = biological target: T1, human CD73 expressed on cells (human); assay: flow cytometry, MDA-MB-231 cells, anti-human Fc detection, gMFI; with 100 µM AMP
[14] = biological target: T1, human CD73 expressed on cells (human); assay: cell-based or functional assay; remark: listed apart in the source
[15] = biological target: T1, human CD73 expressed on cells (human); assay: flow cytometry, MDA-MB-231 cells, anti-human Fc detection, gMFI; no AB680 (column headed No AMP)
[16] = biological target: T1, human CD73 expressed on cells (human); assay: flow cytometry, MDA-MB-231 cells, PE anti-human Fc detection, % labelled cells
[17] = biological target: T1, human CD73 expressed on cells (human); assay: flow cytometry, MDA-MB-231 cells, anti-human Fc detection, gMFI; with 100 µM AMP; remark: listed apart in the source
[18] = biological target: T1, human CD73 expressed on cells (human); assay: flow cytometry, MDA-MB-231 cells, anti-human Fc detection, gMFI; with 10 µM AMP; remark: listed apart in the source
[19] = biological target: T1, human CD73 expressed on cells (human); assay: flow cytometry, MDA-MB-231 cells, anti-human Fc detection, gMFI; no AMP
[20] = biological target: T1, human CD73 expressed on cells (human); assay: flow cytometry, MDA-MB-231 cells, anti-human Fc detection, gMFI; with 100 nM AB680; remark: listed apart in the source
[21] = biological target: T1, human CD73 expressed on cells (human); assay: flow cytometry, MDA-MB-231 cells, anti-human Fc detection, gMFI; with 1,000 µM AMP; remark: listed apart in the source
[22] = biological target: T1, human CD73 expressed on cells (human); assay: flow cytometry, MDA-MB-231 cells, anti-human Fc detection, gMFI

B1: Mupadolimab (antibody, INN chains, looked up, V domains shown)
VH: QVQLVQSGAEVEKPGASVKVSCKASGYTFTSYWITWVRQAPGQGLEWMGDIYPGSGNTNYNEKFKTRVTITADKSTSTAYMELSSLRSEDTAVYYCAKEGGLTTEDYALDYWGQGTLVTVSS
VL: EIVLTQSPATLSLSPGERATLSCRASKNVSTSGYSYMHWYQQKPGQAPRLLIYLASNLESGIPPRFSGSGYGTDFTLTINNIESEDAAYYFCQHSRELPFTFGQGTKVEIK
Binder B1 has an IC50 [1] of 2.59 nM, an IC50 [2] of 0.2 nM and an IC50 [3] of 0.1 nM. The Cell free CD73 inhibition IC50 [4] was greater than 100 nM, the % CD73 receptor internalization, MDA-MB-231 [5] was greater than 70% and the CD73 inhibition, human PBMCs, 3 h IC50 [nM] [5] was 2.85 nM. For the same binder, the CD73 inhibition, human PBMCs, 3 h median IC50 [nM] [5] was 9.27 nM, the CD73 inhibition, human PBMCs, 24 h IC50 [nM] [5] was 44.2 nM and the CD73 inhibition, human PBMCs, 24 h median IC50 [nM] [5] was 29.9 nM. The Cell internalization EC50 (nM), Fab-ZAP saporin assay, MDA-MB-231 [5] was 0.055 nM, the Cell-based CD73 inhibition IC50 (nM), MDA-MB-231 cells [5] was 3.82 nM and the PBMC activation (CD25+), 30 µM AMP EC50 [nM] [5] was 576 nM. For the same binder, the PBMC activation, CD4+CD25+ EC50 [nM] (median, n = 3) [5] was 28 nM, the PBMC activation, CD8+CD25+ EC50 [nM] [5] was 932 nM and the PBMC activation, CD8+CD25+ EC50 [nM] (median, n = 3) [5] was 84 nM. It also gave a PBMC activation, CD8+Granzyme B+ EC50 [nM] (median, n = 3) [5] of 83 nM, a PBMC activation, CD8+granzyme B+ EC50 [nM] [5] of 63.1 nM and a cell-based CD73 enzyme inhibition IC50 (MDA-MB-231 cells) [5] of 1.16 nM. For the same binder, the inhibition of adenosine production (AMP conversion by CellTiter-Glo), human PBMCs, EC50 [nM] [5] was 10 nM, the Cell internalization EC50 (nM), Fab-ZAP saporin assay, MDA-MB-231 [6] was 0.06 nM and the IC50 [7] was 8.48 nM. It also gave an IC50 [8] of 0.12 nM, an IC50 [9] of 0.88 nM and an IC50 [10] of 1.39 nM. The IC50 [11] was 0.1 nM, the IC50 [12] was 1.54 nM and the IC50 [13] was 0.12 nM. For the same binder, the % CD73 receptor internalization, MDA-MB-231 [14] was greater than 60%, the IC50 [15] was 0.09 nM and the EC50 [16] was 1.25 nM. For the same binder, the IC50 [17] was 0.16 nM, the IC50 [18] was 0.048 nM and the IC50 [19] was 0.025 nM. It also gave an IC50 [20] of 4.19 nM, an IC50 [21] of 0.14 nM and a fold reduction of binding at high AMP concentration [22] of 2 fold.
